Data on 14 molecules can be found in patent publication US8785135B2, “Mutant G-protein coupled receptors and methods for selecting them” (Heptares Therapeutics Limited, priority 2007, dated 2014).

B1: S263A: A2aR point mutant (protein, UniProt P29274 1-412, looked up, variant S263A)
Adenosine receptor A2a: MPIMGSSVYITVELAIAVLAILGNVLVCWAVWLNSNLQNVTNYFVVSLAAADIAVGVLAIPFAITISTGFCAACHGCLFIACFVLVLTQSSIFSLLAIAIDRYIAIRIPLRYNGLVTGTRAKGIIAICWVLSFAIGLTPMLGWNNCGQPKEGKNHSQGCGEGQVACLFEDVVPMNYMVYFNFFACVLVPLLLMLGVYLRIFLAARRQLKQMESQPLPGERARSTLQKEVHAAKSLAIIVGLFALCWLPLHIINCFTFFCPDCAHAPLWLMYLAIVLSHTNSVVNPFIYAYRIREFRQTFRKIIRSHVLRQQEPFKAAGTSARVLAAHGSDGEQVSLRLNGHPPGVWANGSAPHPERRPNGYALGLVSGGSAQESQGNTGLPDVELLSHELKGVCPEPPGLDDPLAQDGAGVS
B2: L267A: A2aR point mutant (protein, UniProt P29274 1-412, looked up, variant L267A)
Adenosine receptor A2a: B1 Adenosine receptor A2a with A263S, L267A
B3: A54L: A2aR point mutant (protein, UniProt P29274 1-412, looked up, variant A54L)
Adenosine receptor A2a: B1 Adenosine receptor A2a with A54L, A263S
B4: T119A: A2aR point mutant (protein, UniProt P29274 1-412, looked up, variant T119A)
Adenosine receptor A2a: B1 Adenosine receptor A2a with T119A, A263S
B5: P313A: A2aR point mutant (protein, UniProt P29274 1-412, looked up, variant P313A)
Adenosine receptor A2a: B1 Adenosine receptor A2a with A263S, P313A
B6: N284A: A2aR point mutant (protein, UniProt P29274 1-412, looked up, variant N284A)
Adenosine receptor A2a: B1 Adenosine receptor A2a with A263S, N284A
B7: V57A: A2aR point mutant (protein, UniProt P29274 1-412, looked up, variant V57A)
Adenosine receptor A2a: B1 Adenosine receptor A2a with V57A, A263S
B8: G114 A: A2aR point mutant (protein, UniProt P29274 1-412, looked up, variant G114A)
Adenosine receptor A2a: B1 Adenosine receptor A2a with G114A, A263S
B9: K315A: A2aR point mutant (protein, UniProt P29274 1-412, looked up, variant K315A)
Adenosine receptor A2a: B1 Adenosine receptor A2a with A263S, K315A
B10: H75A: A2aR point mutant (protein, UniProt P29274 1-412, looked up, variant H75A)
Adenosine receptor A2a: B1 Adenosine receptor A2a with H75A, A263S
B11: L272A: A2aR point mutant (protein, UniProt P29274 1-412, looked up, variant L272A)
Adenosine receptor A2a: B1 Adenosine receptor A2a with A263S, L272A
B12: T88A: A2aR point mutant (protein, UniProt P29274 1-412, looked up, variant T88A)
Adenosine receptor A2a: B1 Adenosine receptor A2a with T88A, A263S
B13: Q311A: A2aR point mutant (protein, UniProt P29274 1-412, looked up, variant Q311A)
Adenosine receptor A2a: B1 Adenosine receptor A2a with A263S, Q311A
B14: Rant17: A2aR mutant A54L+K122A+L235A (protein, UniProt P29274 1-412, looked up, variant A54L K122A L235A)
Adenosine receptor A2a: B1 Adenosine receptor A2a with A54L, K122A, L235A, A263S

Positions count from the first letter of the chain named. Numbers in names are those of the source.

The nature of one data set: Thermostability of A2aR and mutants (ligand binding after or during heating). Format: physicochemical. To be noted: Ligand(−) format, binding after the heating step. The text has this: FIG. 12 Flow chart showing the two different assay formats of ligand (+) and ligand (−) used to determine receptor thermostability.
• 1. 315 site-directed mutants made between residues 2-316 of A2aR. • 2. All of these mutants have been assayed for thermostability using an assay measuring agonist and antagonist binding after the heating step (Ligand(−) format as described in FIG. 12). • a. […] Mutations have been combined to generate mutants in a putative antagonist conformation. Wildtype A2aR has a Tm of 31° C. with ZM241385 bound. • a. Rant17 A54L+K122A+L235A Tm 48° C. (ZM241385 bound) • b. Rant19 A54L, T88A, V239A+A204L Tm 47° C. (ZM241385 bound) • c. Rant21 A54L, T88A, V239A+K122A Tm 49° C. (ZM241385 bound) • 4. Mutations from the agonist screen have been combined, but have led to only a very low level of improvement in Tm of +2° C.
Turning to B1, the “thermostability measured with 3H-NECA (agonist)” value (shortened to “thermostability measured”) is recorded as “improved thermostability”.
Still for that read-out and setting: then B2, with “improved thermostability”.
As to B3, the “thermostability assayed with 3H-ZM241385 (antagonist)” value (“thermostability assayed” below) is on record as “improved thermostability”.
Same read-out and setting: the same measure for B4: “improved thermostability”.
Turning to B5, the “thermostability measured” value is “improved thermostability”.
On the same count and under the same terms, the same measure for B6: “improved thermostability”.
B7: the “thermostability assayed” value is listed as “improved thermostability”.
With B8, the “thermostability assayed” value is “improved thermostability” and the “thermostability measured” value is listed as “improved thermostability”.
As to B9, the “thermostability measured” value is on record as “improved thermostability”.
With B10, the “thermostability assayed” value is listed as “improved thermostability”.
Regarding B11, the “thermostability measured” value is “improved thermostability”.
For the molecule B12, the “thermostability assayed” value was “improved thermostability”.
For the molecule B13, the “thermostability measured” value is “improved thermostability”.

The same data set, now with this note: ZM241385 bound.
B14: the Tm came to 48 °C.
